The values that follow come from patent US20160305952A1 (ROCHE SEQUENCING SOLUTIONS, published 2016).

Where no end group is shown, it is not given here.

Experiment [1] deals with T1, Prostate Specific Antigen (human, UniProt P07288 25-261).
T1 construct: also called PSA
Nature of the experiment: peptide array, 5-mer library, 5Z linker.

Experiment [2] deals with T2, Taq polymerase (UniProt P19821 1-832). In words: peptide array, 5-mer library, 5Z linker.
Another experiment concerns the target T3, streptavidin (UniProt P22629 37-163, limits assumed).
T3 construct: amine-coupled to a CM5 chip for SPR; also called SA
Nature of the experiment: SPR, Biacore X100, streptavidin on CM5 chip, peptide in solution. The source says:
A selection of streptavidin peptide binders listed in Table 15 were synthesized using standard column-based synthesis techniques by UW Biotechnology center (Madison, Wis.) or by Peptide2.0 (Chantilly, Va.) at 98-99% purity. Strep-tag II peptide NH2-[…]-COOH was purchased from IBA GmbH (Goettingen, Germany). Synthesized peptides were then characterized by Surface Plasmon Resonance (SPR) to identify binding characteristics including the association rate constant (kₛ), dissociation rate constant (kd), and equilibrium dissociation […] (kd/kₐ=KD). In one aspect, SPR experiments were performed by using Biacore X100 instrument (GE Healthcare). Preliminarily, 60 μl of 100 μg/ml streptavidin in 10 mM Na-acetate, pH5.0 was immobilized to flow cell 2 (Fc2) of a sensor chip CM5 (GE Healthcare) using Amine Coupling Kit (GE Healthcare) at 20° C. for 6 min. Peptide stock solutions were prepared at 5 or 10 mM concentration in water and diluted in HBS-EP+ (GE Healthcare) buffer before SPR experiments. Peptide binding was performed in a multiple kinetics mode using HBS-EP+ as a running buffer and 0.2 M NaCl, 10 mM NaOH or 10 mM HCl-glycine, […] as regeneration buffer. Binding kinetics parameters were calculated with Biacore X100 software.

For experiment [3], the target named is T2, Taq polymerase. In words: peptide array, extension library, 3Z linker.
The target in experiment [4] is T1, Prostate Specific Antigen. In words: peptide array, extension library, 3Z linker.
Experiment [5] has as its target T4, Tumor Necrosis Factor Alpha (human, UniProt P01375 77-233).
T4 construct: also called TNFα; TNF-α
In words: peptide array, 5-mer library, 5Z linker.

The target in experiment [6] is T4, Tumor Necrosis Factor Alpha. Nature of the experiment: peptide array, extension library, 3Z linker.

T4 sequence (P01375 77-233 limits assumed): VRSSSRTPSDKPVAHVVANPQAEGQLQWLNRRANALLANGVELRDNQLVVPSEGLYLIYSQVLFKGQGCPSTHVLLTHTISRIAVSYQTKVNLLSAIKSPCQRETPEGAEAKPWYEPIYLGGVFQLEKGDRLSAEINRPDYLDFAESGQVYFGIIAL
T1 sequence (P07288 25-261 limits assumed): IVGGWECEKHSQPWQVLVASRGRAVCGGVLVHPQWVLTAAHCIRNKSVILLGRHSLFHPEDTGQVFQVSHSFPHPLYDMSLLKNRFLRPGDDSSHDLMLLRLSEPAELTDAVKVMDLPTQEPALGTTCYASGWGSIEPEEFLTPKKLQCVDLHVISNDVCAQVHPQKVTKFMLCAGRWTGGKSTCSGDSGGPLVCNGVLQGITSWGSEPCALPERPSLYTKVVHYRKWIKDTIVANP
T2 sequence (P19821 whole entry): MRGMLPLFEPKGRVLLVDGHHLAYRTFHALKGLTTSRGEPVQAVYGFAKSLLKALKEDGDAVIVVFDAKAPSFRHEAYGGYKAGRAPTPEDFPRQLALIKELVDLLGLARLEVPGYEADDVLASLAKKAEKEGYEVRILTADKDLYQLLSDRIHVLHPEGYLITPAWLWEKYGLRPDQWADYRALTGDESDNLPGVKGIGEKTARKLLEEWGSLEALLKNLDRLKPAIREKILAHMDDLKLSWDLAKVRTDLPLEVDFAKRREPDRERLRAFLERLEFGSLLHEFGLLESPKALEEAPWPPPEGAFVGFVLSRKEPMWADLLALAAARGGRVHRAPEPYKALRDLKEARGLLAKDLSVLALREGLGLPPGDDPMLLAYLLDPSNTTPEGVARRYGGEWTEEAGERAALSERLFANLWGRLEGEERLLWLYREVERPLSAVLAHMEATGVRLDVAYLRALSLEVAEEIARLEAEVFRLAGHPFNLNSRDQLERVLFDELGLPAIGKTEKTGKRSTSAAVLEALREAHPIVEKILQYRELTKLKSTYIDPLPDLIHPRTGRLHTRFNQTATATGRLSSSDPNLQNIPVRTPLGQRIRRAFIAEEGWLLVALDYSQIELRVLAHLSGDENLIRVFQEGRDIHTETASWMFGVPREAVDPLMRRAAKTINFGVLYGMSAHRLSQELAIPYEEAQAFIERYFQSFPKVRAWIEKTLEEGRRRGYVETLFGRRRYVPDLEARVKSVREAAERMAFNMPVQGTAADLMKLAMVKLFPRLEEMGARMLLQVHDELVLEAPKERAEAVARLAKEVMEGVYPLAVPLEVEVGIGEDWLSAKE
T3 sequence (P22629 37-163 limits assumed): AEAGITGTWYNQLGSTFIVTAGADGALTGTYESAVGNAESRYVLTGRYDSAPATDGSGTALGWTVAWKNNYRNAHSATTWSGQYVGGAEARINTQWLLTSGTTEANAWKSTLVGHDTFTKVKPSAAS

In the case of WEVHL (also: array-bound via 5Z linker), the binding result in experiment [1] is on record as “binds”.

Consider WKAEK (also: array-bound via 5Z linker), for which the binding result with Taq polymerase [2] is on record as “binds”. Take H-AFDYLAQYHGG-NH2 (free peptide) [NH2-AFDYLAQYHGG-amide]: in the experiment with streptavidin, the Kd was 1.52 µM, the koff was found to be 0.0354 s⁻¹ and the kon was 23300 M⁻¹ s⁻¹. In the case of RSILY (also: array-bound via 5Z linker), the binding result in experiment [1] was “binds”. As to HYFEF (also: array-bound via 5Z linker), in the experiment with Taq polymerase [2], the binding result is “binds”. With H-WTHPQFEQPKA-NH2 (free peptide) [NH2-WTHPQFEQPKA-amide], binding with streptavidin was put at a Kd of 7.9 µM. For RSWDWDWKK (also: array-bound via 3Z linker), in the experiment with Taq polymerase [3], the binding result is “binds”.

Consider WKEDW (also: array-bound via 5Z linker), for which the binding result with Taq polymerase [2] was “binds”.

Consider TDFEVYLPK (also: array-bound via 3Z linker), for which, in experiment [4], the binding result is listed as “binds”. Regarding TAVFV (also: array-bound via 5Z linker), the binding result in experiment [5] is reported as “binds”. For the molecule WTKVK (also: array-bound via 5Z linker), the binding result with Taq polymerase [2] is recorded as “binds”. In the case of FEVYL (also: array-bound via 5Z linker), in experiment [1], the binding result is given as “binds”.

On to SCRSILYND (also: array-bound via 3Z linker), for which, in experiment [4], the binding result is given as “binds”. In the case of GGTAVFVNT (also: array-bound via 3Z linker), the binding result in experiment [6] is given as “binds”.

With YKWKEDWKW (also: array-bound via 3Z linker), the binding result with Taq polymerase [3] was “binds”. With GEHYFEFAP (also: array-bound via 3Z linker), the binding result with Taq polymerase [3] is “binds”. In the case of HEFSF (also: array-bound via 5Z linker), the binding result with Taq polymerase [2] was “binds”. For FGWKAEKFN (also: array-bound via 3Z linker), in the experiment with Taq polymerase [3], the binding result is recorded as “binds”. Same read-out and setting: the result for YSWTKVKDY (also: array-bound via 3Z linker) reads “binds”. Same read-out and setting: the same measure for QQHYFEFEK (also: array-bound via 3Z linker): “binds”. TGWEVHLGK (also: array-bound via 3Z linker): the binding result in experiment [4] is given as “binds”. Turning to GEHYFEFQQ (also: array-bound via 3Z linker), the binding result in the experiment with Taq polymerase [3] is reported as “binds”. Consider ALYLF (also: array-bound via 5Z linker), for which the binding result in experiment [5] is “binds”. In the case of GQFEVYLPG (also: array-bound via 3Z linker), the binding result in experiment [4] is on record as “binds”.

B1: NH2-WTHPQFEQK-COOH (peptide)
peptide: H-WTHPQFEQK-OH
notes: free peptide, C-terminal carboxylic acid
With B1, the affinity in the experiment with streptavidin, expressed as Kd, was 15.5 µM. On to SCRSILYGQ (also: array-bound via 3Z linker), for which the binding result in experiment [4] is given as “binds”. The same measure, in the same setting: the same measure for SCRSILYGP (also: array-bound via 3Z linker): “binds”. For the molecule WTVYA (also: array-bound via 5Z linker), the binding result in experiment [1] was “binds”. Turning to NGFEVYLPG (also: array-bound via 3Z linker), the binding result in experiment [4] is on record as “binds”. Take WDWDW (also: array-bound via 5Z linker): the binding result in the experiment with Taq polymerase [2] was “binds”. Consider DGALYLFGN (also: array-bound via 3Z linker), for which, in experiment [6], the binding result is given as “binds”. QAAIAIFGG (also: array-bound via 3Z linker): the binding result in experiment [6] is “binds”. Take YEHEFSFGT (also: array-bound via 3Z linker): the binding result with Taq polymerase [3] is listed as “binds”.

With GQHEFSFGT (also: array-bound via 3Z linker), in the experiment with Taq polymerase [3], the binding result is recorded as “binds”. In the experiment with streptavidin, H-AFPDYLAEYHGG-NH2 (free peptide) [NH2-AFPDYLAEYHGG-amide] showed a Kd of 0.043 µM, a koff of 0.00128 s⁻¹ and a kon of 30100 M⁻¹ s⁻¹.

Consider SEWTVYAGN (also: array-bound via 3Z linker), for which the binding result in experiment [4] is reported as “binds”.

YEWTKVKNY (also: array-bound via 3Z linker): the binding result with Taq polymerase [3] is “binds”.

With GDWTVYAGN (also: array-bound via 3Z linker), the binding result in experiment [4] was “binds”.

B2: NH2-NSFDDWLAKGG-COOH (peptide)
peptide: H-NSFDDWLAKGG-OH
notes: as for B1
B2 displayed a Kd in the experiment with streptavidin of 11.3 µM. Regarding KKWDWDWKW (also: array-bound via 3Z linker), the binding result with Taq polymerase [3] was “binds”. Consider GQWEVHLGK (also: array-bound via 3Z linker), for which, in experiment [4], the binding result is recorded as “binds”.

B3: NH2-ADYLAEYHGG-COOH (peptide)
peptide: H-ADYLAEYHGG-OH
notes: as for B1
In the experiment with streptavidin, B3 gave a Kd of 96 µM.

B4: NH2-SAWSHPQFEK-COOH (peptide)
peptide: H-SAWSHPQFEK-OH
notes: free peptide, C-terminal carboxylic acid; bought from IBA; also called Strep-tag II peptide; Strep-Tag II
In the experiment with streptavidin, B4 came in with a Kd of 49.8 µM. For the molecule AIAIF (also: array-bound via 5Z linker), in experiment [5], the binding result is given as “binds”. On to TSVTVYVNN (also: array-bound via 3Z linker), for which the binding result in experiment [6] was “binds”.
